# Reference: patent US20240209076A1 (KODIAK SCIENCES, published 2024)
# Target: T1, recombinant human IL-6 (human, UniProt P05231 30-212)
# T1 construct: Flowed in solution over the captured antibodies
# Experiment: SPR (Biacore), supernatant IgG on Protein A, 25 C
# Method: Antibodies were captured on a Protein A chip (GE) by injecting 1:20 dilution of cell supernatant at 10 μL/min for 60 seconds. […] The sensor chip was regenerated by a 60 seconds injection of 10 mM Glycine pH 1.7 at flow rate of 50 μL/min. […] For this setup, 1 μg/mL of purified antibody was injected over a Protein A chip at 10 μL/min for 25-28 seconds. Data analysis for supernatant and purified samples were performed using BIAevaluation software (GE). All sensorgrams were double reference subtracted and fit using a 1:1 Langmuir binding model.
# T1 sequence (P05231 30-212 limits assumed): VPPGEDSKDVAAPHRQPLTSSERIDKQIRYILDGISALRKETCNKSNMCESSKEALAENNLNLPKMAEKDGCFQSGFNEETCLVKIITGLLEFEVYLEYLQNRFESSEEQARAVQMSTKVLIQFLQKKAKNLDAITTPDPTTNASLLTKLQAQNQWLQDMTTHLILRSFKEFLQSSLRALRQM
Binder,Kd,koff,kon
"anti-IL-6 antibody, heavy chain A49T, light chain WT (antibody, IgG1, V domains shown, Full IgG1 tested; V domains derived as in m2) VH: EVQLVESGGGLVQPGGSLRLSCAASGFTFSPFAMSWVRQAPGKGLEWVTKISPGGSWTYYSDTVTGRFTFSLDTSKSTAYLQMNSLRAEDTAVYYCARQLWGYYALDIWGQGTLVTVSS VL: DIQLTQSPSSLSASVGDRVTITCSASISVSYMYWYQQKPGKAPKLLIYDMSNLASGVPSRFSGSGSGTDFTLTISSLQPEDFATYYCMQWSGYPYTFGQGTKVEIK",0.337 nM,0.000151 s⁻¹,448000 M⁻¹ s⁻¹
"anti-IL-6 antibody, heavy chain G102D, light chain WT (antibody, IgG1, V domains shown, Full IgG1 tested; V domains derived as in m2) VH: EVQLVESGGGLVQPGGSLRLSCAASGFTFSPFAMSWVRQAPGKGLEWVAKISPGGSWTYYSDTVTGRFTFSLDTSKSTAYLQMNSLRAEDTAVYYCARQLWDYYALDIWGQGTLVTVSS VL: DIQLTQSPSSLSASVGDRVTITCSASISVSYMYWYQQKPGKAPKLLIYDMSNLASGVPSRFSGSGSGTDFTLTISSLQPEDFATYYCMQWSGYPYTFGQGTKVEIK",1.33 nM,0.0006 s⁻¹,452000 M⁻¹ s⁻¹
"anti-IL-6 antibody, heavy chain A97V, light chain WT (antibody, IgG1, V domains shown, Full IgG1 tested; V domains derived as in m2) VH: EVQLVESGGGLVQPGGSLRLSCAASGFTFSPFAMSWVRQAPGKGLEWVAKISPGGSWTYYSDTVTGRFTFSLDTSKSTAYLQMNSLRAEDTAVYYCVRQLWGYYALDIWGQGTLVTVSS VL: DIQLTQSPSSLSASVGDRVTITCSASISVSYMYWYQQKPGKAPKLLIYDMSNLASGVPSRFSGSGSGTDFTLTISSLQPEDFATYYCMQWSGYPYTFGQGTKVEIK",0.574 nM,0.000179 s⁻¹,311000 M⁻¹ s⁻¹
"anti-IL-6 antibody, heavy chain Q99A, light chain WT (antibody, IgG1, V domains shown, Full IgG1 tested; V domains derived as in m2) VH: EVQLVESGGGLVQPGGSLRLSCAASGFTFSPFAMSWVRQAPGKGLEWVAKISPGGSWTYYSDTVTGRFTFSLDTSKSTAYLQMNSLRAEDTAVYYCARALWGYYALDIWGQGTLVTVSS VL: DIQLTQSPSSLSASVGDRVTITCSASISVSYMYWYQQKPGKAPKLLIYDMSNLASGVPSRFSGSGSGTDFTLTISSLQPEDFATYYCMQWSGYPYTFGQGTKVEIK",2 nM,0.000737 s⁻¹,368000 M⁻¹ s⁻¹
"anti-IL-6 antibody, heavy chain A105H, light chain WT (antibody, IgG1, V domains shown, Full IgG1 tested; V domains derived as in m2) VH: EVQLVESGGGLVQPGGSLRLSCAASGFTFSPFAMSWVRQAPGKGLEWVAKISPGGSWTYYSDTVTGRFTFSLDTSKSTAYLQMNSLRAEDTAVYYCARQLWGYYHLDIWGQGTLVTVSS VL: DIQLTQSPSSLSASVGDRVTITCSASISVSYMYWYQQKPGKAPKLLIYDMSNLASGVPSRFSGSGSGTDFTLTISSLQPEDFATYYCMQWSGYPYTFGQGTKVEIK",1.79 nM,0.000723 s⁻¹,404000 M⁻¹ s⁻¹
"anti-IL-6 antibody, heavy chain L106I, light chain WT (antibody, IgG1, V domains shown, Full IgG1 tested; V domains derived as in m2) VH: EVQLVESGGGLVQPGGSLRLSCAASGFTFSPFAMSWVRQAPGKGLEWVAKISPGGSWTYYSDTVTGRFTFSLDTSKSTAYLQMNSLRAEDTAVYYCARQLWGYYAIDIWGQGTLVTVSS VL: DIQLTQSPSSLSASVGDRVTITCSASISVSYMYWYQQKPGKAPKLLIYDMSNLASGVPSRFSGSGSGTDFTLTISSLQPEDFATYYCMQWSGYPYTFGQGTKVEIK",0.279 nM,0.000134 s⁻¹,479000 M⁻¹ s⁻¹
"anti-IL-6 antibody, heavy chain D62F, light chain WT (antibody, IgG1, V domains shown, Full IgG1 tested; V domains derived as in m2) VH: EVQLVESGGGLVQPGGSLRLSCAASGFTFSPFAMSWVRQAPGKGLEWVAKISPGGSWTYYSFTVTGRFTFSLDTSKSTAYLQMNSLRAEDTAVYYCARQLWGYYALDIWGQGTLVTVSS VL: DIQLTQSPSSLSASVGDRVTITCSASISVSYMYWYQQKPGKAPKLLIYDMSNLASGVPSRFSGSGSGTDFTLTISSLQPEDFATYYCMQWSGYPYTFGQGTKVEIK",0.35 nM,0.000147 s⁻¹,420000 M⁻¹ s⁻¹
"anti-IL-6 antibody, heavy chain F27S, light chain WT (antibody, IgG1, V domains shown, Full IgG1 tested; V domains derived as in m2) VH: EVQLVESGGGLVQPGGSLRLSCAASGSTFSPFAMSWVRQAPGKGLEWVAKISPGGSWTYYSDTVTGRFTFSLDTSKSTAYLQMNSLRAEDTAVYYCARQLWGYYALDIWGQGTLVTVSS VL: DIQLTQSPSSLSASVGDRVTITCSASISVSYMYWYQQKPGKAPKLLIYDMSNLASGVPSRFSGSGSGTDFTLTISSLQPEDFATYYCMQWSGYPYTFGQGTKVEIK",0.278 nM,0.000203 s⁻¹,731000 M⁻¹ s⁻¹
"anti-IL-6 antibody, heavy chain F27R, light chain WT (antibody, IgG1, V domains shown, Full IgG1 tested; V domains derived as in m2) VH: EVQLVESGGGLVQPGGSLRLSCAASGRTFSPFAMSWVRQAPGKGLEWVAKISPGGSWTYYSDTVTGRFTFSLDTSKSTAYLQMNSLRAEDTAVYYCARQLWGYYALDIWGQGTLVTVSS VL: DIQLTQSPSSLSASVGDRVTITCSASISVSYMYWYQQKPGKAPKLLIYDMSNLASGVPSRFSGSGSGTDFTLTISSLQPEDFATYYCMQWSGYPYTFGQGTKVEIK",0.415 nM,0.000209 s⁻¹,503000 M⁻¹ s⁻¹
"anti-IL-6 antibody, heavy chain F27G, light chain WT (antibody, IgG1, V domains shown, Full IgG1 tested; V domains derived as in m2) VH: EVQLVESGGGLVQPGGSLRLSCAASGGTFSPFAMSWVRQAPGKGLEWVAKISPGGSWTYYSDTVTGRFTFSLDTSKSTAYLQMNSLRAEDTAVYYCARQLWGYYALDIWGQGTLVTVSS VL: DIQLTQSPSSLSASVGDRVTITCSASISVSYMYWYQQKPGKAPKLLIYDMSNLASGVPSRFSGSGSGTDFTLTISSLQPEDFATYYCMQWSGYPYTFGQGTKVEIK",0.24 nM,0.000206 s⁻¹,856000 M⁻¹ s⁻¹
"anti-IL-6 antibody, heavy chain A105Q, light chain WT (antibody, IgG1, V domains shown, Full IgG1 tested; V domains derived as in m2) VH: EVQLVESGGGLVQPGGSLRLSCAASGFTFSPFAMSWVRQAPGKGLEWVAKISPGGSWTYYSDTVTGRFTFSLDTSKSTAYLQMNSLRAEDTAVYYCARQLWGYYQLDIWGQGTLVTVSS VL: DIQLTQSPSSLSASVGDRVTITCSASISVSYMYWYQQKPGKAPKLLIYDMSNLASGVPSRFSGSGSGTDFTLTISSLQPEDFATYYCMQWSGYPYTFGQGTKVEIK",1.04 nM,0.000493 s⁻¹,474000 M⁻¹ s⁻¹
"anti-IL-6 antibody, heavy chain F27V, light chain WT (antibody, IgG1, V domains shown, Full IgG1 tested; V domains derived as in m2) VH: EVQLVESGGGLVQPGGSLRLSCAASGVTFSPFAMSWVRQAPGKGLEWVAKISPGGSWTYYSDTVTGRFTFSLDTSKSTAYLQMNSLRAEDTAVYYCARQLWGYYALDIWGQGTLVTVSS VL: DIQLTQSPSSLSASVGDRVTITCSASISVSYMYWYQQKPGKAPKLLIYDMSNLASGVPSRFSGSGSGTDFTLTISSLQPEDFATYYCMQWSGYPYTFGQGTKVEIK",0.442 nM,0.000208 s⁻¹,470000 M⁻¹ s⁻¹
"anti-IL-6 antibody, heavy chain F27P, light chain WT (antibody, IgG1, V domains shown, Full IgG1 tested; V domains derived as in m2) VH: EVQLVESGGGLVQPGGSLRLSCAASGPTFSPFAMSWVRQAPGKGLEWVAKISPGGSWTYYSDTVTGRFTFSLDTSKSTAYLQMNSLRAEDTAVYYCARQLWGYYALDIWGQGTLVTVSS VL: DIQLTQSPSSLSASVGDRVTITCSASISVSYMYWYQQKPGKAPKLLIYDMSNLASGVPSRFSGSGSGTDFTLTISSLQPEDFATYYCMQWSGYPYTFGQGTKVEIK",0.344 nM,0.000196 s⁻¹,570000 M⁻¹ s⁻¹

# Continued, values first:
Kd,koff,kon,Binder
0.379 nM,0.000132 s⁻¹,348000 M⁻¹ s⁻¹,"anti-IL-6 antibody, heavy chain S35H, light chain WT (antibody, IgG1, V domains shown, Full IgG1 tested; V domains derived as in m2) VH: EVQLVESGGGLVQPGGSLRLSCAASGFTFSPFAMHWVRQAPGKGLEWVAKISPGGSWTYYSDTVTGRFTFSLDTSKSTAYLQMNSLRAEDTAVYYCARQLWGYYALDIWGQGTLVTVSS VL: DIQLTQSPSSLSASVGDRVTITCSASISVSYMYWYQQKPGKAPKLLIYDMSNLASGVPSRFSGSGSGTDFTLTISSLQPEDFATYYCMQWSGYPYTFGQGTKVEIK"
1.42 nM,0.000251 s⁻¹,176000 M⁻¹ s⁻¹,"anti-IL-6 antibody, heavy chain R98G, light chain WT (antibody, IgG1, V domains shown, Full IgG1 tested; V domains derived as in m2) VH: EVQLVESGGGLVQPGGSLRLSCAASGFTFSPFAMSWVRQAPGKGLEWVAKISPGGSWTYYSDTVTGRFTFSLDTSKSTAYLQMNSLRAEDTAVYYCAGQLWGYYALDIWGQGTLVTVSS VL: DIQLTQSPSSLSASVGDRVTITCSASISVSYMYWYQQKPGKAPKLLIYDMSNLASGVPSRFSGSGSGTDFTLTISSLQPEDFATYYCMQWSGYPYTFGQGTKVEIK"
0.376 nM,0.000157 s⁻¹,417000 M⁻¹ s⁻¹,"anti-IL-6 antibody, heavy chain S30W, light chain WT (antibody, IgG1, V domains shown, Full IgG1 tested; V domains derived as in m2) VH: EVQLVESGGGLVQPGGSLRLSCAASGFTFWPFAMSWVRQAPGKGLEWVAKISPGGSWTYYSDTVTGRFTFSLDTSKSTAYLQMNSLRAEDTAVYYCARQLWGYYALDIWGQGTLVTVSS VL: DIQLTQSPSSLSASVGDRVTITCSASISVSYMYWYQQKPGKAPKLLIYDMSNLASGVPSRFSGSGSGTDFTLTISSLQPEDFATYYCMQWSGYPYTFGQGTKVEIK"
1.94 nM,0.00105 s⁻¹,539000 M⁻¹ s⁻¹,"anti-IL-6 antibody, heavy chain Q99H, light chain WT (antibody, IgG1, V domains shown, Full IgG1 tested; V domains derived as in m2) VH: EVQLVESGGGLVQPGGSLRLSCAASGFTFSPFAMSWVRQAPGKGLEWVAKISPGGSWTYYSDTVTGRFTFSLDTSKSTAYLQMNSLRAEDTAVYYCARHLWGYYALDIWGQGTLVTVSS VL: DIQLTQSPSSLSASVGDRVTITCSASISVSYMYWYQQKPGKAPKLLIYDMSNLASGVPSRFSGSGSGTDFTLTISSLQPEDFATYYCMQWSGYPYTFGQGTKVEIK"
0.333 nM,0.000132 s⁻¹,398000 M⁻¹ s⁻¹,"anti-IL-6 antibody, heavy chain S30G, light chain WT (antibody, IgG1, V domains shown, Full IgG1 tested; V domains derived as in m2; also called S30G (heavy chain)) VH: EVQLVESGGGLVQPGGSLRLSCAASGFTFGPFAMSWVRQAPGKGLEWVAKISPGGSWTYYSDTVTGRFTFSLDTSKSTAYLQMNSLRAEDTAVYYCARQLWGYYALDIWGQGTLVTVSS VL: DIQLTQSPSSLSASVGDRVTITCSASISVSYMYWYQQKPGKAPKLLIYDMSNLASGVPSRFSGSGSGTDFTLTISSLQPEDFATYYCMQWSGYPYTFGQGTKVEIK"
0.334 nM,0.000122 s⁻¹,365000 M⁻¹ s⁻¹,"anti-IL-6 antibody, heavy chain S30Y, light chain WT (antibody, IgG1, V domains shown, Full IgG1 tested; V domains derived as in m2) VH: EVQLVESGGGLVQPGGSLRLSCAASGFTFYPFAMSWVRQAPGKGLEWVAKISPGGSWTYYSDTVTGRFTFSLDTSKSTAYLQMNSLRAEDTAVYYCARQLWGYYALDIWGQGTLVTVSS VL: DIQLTQSPSSLSASVGDRVTITCSASISVSYMYWYQQKPGKAPKLLIYDMSNLASGVPSRFSGSGSGTDFTLTISSLQPEDFATYYCMQWSGYPYTFGQGTKVEIK"
